From the DeepSol protein solubility set

Experiment: soluble on expression in E. coli; label from the status in PepcDB or PDB records

Sequence | soluble on expression in E. coli
MGSDKIHHHHHHMLKDFAKLETFLIVVRERSFSKASAKLGISQPAVTQQIKYIEEYLDTKIIERKKNGVKLTKDGEKLLTIALRLERAIVTAEKETMKIIKKDFSFNIGASFTIGNYILPNCLGNIKEMIKNDVFVKIDSSDNIIEALIEKKIDLALIESPIFKDNIVYREWVEDEFVLFSNSPLPKTVKKEDLLTFSWICREWGSNTRRIINETLDDVGIDCTTFDIKGVVSSSTGVKHTVLKSPKFPEESPKPTVAILSKYVVQDDLVNNSLHESKIRGCKLKRKLYLAYLKDRKNDAFVDTVSSCLMCNKNLG | not soluble
SSSSSSVPAYLGDEDLTQETRALISSLPKEKGWLVSEIYEFQGLWHTQAILQGILICQKRFEAKDSDIILVTNPKSGTTWLKALVFALLNRHKFPVSSSGNHPLLVTNPHLLVPFLEGVYYESPDFDFSSLPSPRLMNTHISHLSLPESVKSSSCKIVYCCRNPKDMFVSLWHFGKKLAPEETADYPIEKAVEAFCEGKFIGGPFWDHILEYWYASRENPNKVLFVTYEELKKQTEVEMKRIAEFLECGFIEEEEVREIVKLCSFESLSNLEVNKEGKLPNGIETKTFFRKGEIGGWRDTLSESLAEEIDRTIEEKFKGSGLKFSS | soluble
SMGAEPGRPARLDQLLDMPAAGLAVQLRHAWNPEDRSLNVFVKDDDRLTFHRHPVAQSTDGIRGKVGHARGLHAWQINWPARQRGTHAVVGVATARAPLHSVGYTALVGSDAESWGWDLGRSRLYHDGKNQPGVAYPAFLGPDEAFALPDSLLVVLDMDEGTLSFIVDGQYLGVAFRGLKGKKLYPVVSAVWGHCEVTMRYINGLDPE | soluble
MSLSNLTSQLHNFFSAQLAGVSDEVRVSIRTAPNLLPPCEQPLLSMSNNSRLWGNVNVLARCGNDKRYLQVNVQATGNYVVAAMPIARGGKLEAGNVKLKRGRLDTLPPRTVLDINQLVDAISLRDLSPDQPIQLTQFRQAWRVKAGQRVNVIASGDGFSANAEGQALNNAAVAQNARVRMVSGQVVSGVVDADGNILINLEGHHHHHH | soluble
MVFVKTLHRTLFLEVAANEDVLSIKQKIEAAEGIPAEEQRLCYAGRQLEDSDCGIDSEATIYVNLELLGGAKKRKKKVYTTPKKNKRKPKKVKLAVLKYYKIDENGKITRLRKECQQPSCGGGVFMAQHANRHYCGRCHDTLVVDTATAAATSGEKGGKKGKK | not soluble
MKKFSGIIPPVSSTFHRDGTLDKKAMREVADFLINKGVDGLFYLGTGGEFSQMNTAQRMALAEEAVTIVDGRVPVLIGVGSPSTDEAVKLAQHAQAYGADGIVAINPYYWKVAPRNLDDYYQQIARSVTLPVILYNFPDLTGQDLTPETVTRLALQNENIVGIKDTIDSVGHLRTMINTVKSVRPSFSVFCGYDDHLLNTMLLGGDGAITASANFAPELSVGIYRAWREGDLATAATLNKKLLQLPAIYALETPFVSLIKYSMQCVGLPVETYCLPPILEASEEAKDKVHVLLTAQGILPV | not soluble
GPEQVLDRASMHLANGLLGNPDSAAGLEVLLGGLKLRFVSGSAVAVTGAEGMVTLDGTELPLNKAVRVPPGAVLELGPAMFGIRYYLAVQGGISAQGEAAQGEAIRAGAALTFGRPNNHGSPEVNHPARRALDPERPVVARVSRGPQAQNDDAGTWLRLTSEPWILSPESDRAGARLVGRPLDVTSAPIPQAQPLVSGSVLLPSSGLPVIALAGHPDTSQSPVIAVVRDEDLDVLGQARPGQMVHLLG | not soluble
MGVPMGNGDCGAEFKCPPNFHKSNRVNGVWCIKVYPGNMTWWEAERECRCTIKGGHLSGIESNSEKRYVEEQTLSILDDKNIKNGAVWLGAYRRKECPSGKVSSDSICHDEKTFQFTDQHTCKTLIFQDWAANQPTNNAGDDCAVLLASTEASGSNSEASGKAAVKNCLHVQGTTPILSSVGFVCGVKAAQEGGNYGGYGGGDFMVIGAAKPKH | not soluble
MAHHHHHHMRPSFGSLDYNVLSNFCEKLFLAADKNDRNEVITKKTLQMFFTSKIFYEILNHFKNLSTEENKKYVYAKYKTIYLKKCFDNNITPEPGSPKNEDAVSEVDNKIDDEDKEEEEQITNDKYEHYEENNNDYYKGREKIGTQSKGTEDSVDFNLSLKHAQYAVNGIIKIIYIPRYSETRAQIIPFIFRIIFFFNGEEETKNIGYII | not soluble
GSQVQLVESGGGLVQAGGSLRLSCAASGYAYTYIYMGWFRQAPGKEREGVAAMDSGGGGTLYADSVKGRMTISRDKGKNTVYLQMDSMKPEDTATYYCAAGGYELRDRTYGQWGQGTQVTVSS | soluble
MGSDKIHHHHHHMHLPNSQIYKNFGESMNPFDIMKASQIACCLEVSSFKPGNVHRNRDYRDIKYHHFINAGIAFGNVVYEAAQKDRDVGLYIKKAVIESKKWSPTNANLGIIMLHIPIAMAAGKLENFDENKLKENLKKIAENTTVEDALNVYDAINIAMAYVNKPKKGPDVTSEDAKKELIEKGLTLLDVYKISAEWDNISKEWVDNFKISFEGYNLLKKYYDELNNINLAVTKTFLNLLAKYPDTLIARKRGFETALKVSKMAEDVLNNFKEEKVKEFDKYLSKEGNKLNPGTTADLIASSLMIFILDRIDKRETILW | not soluble
MGIKGSKPKLSKEDLEFLKKNTNFTEEQIKEWYKGFVQDCPKGHLTKEQFIKVYKDFFPSGSAEGFCEHVFRTFDTDNSGFIDFKEFLLAINVTSSGTPEQKLEWAFRMYDIDGNGTIDEKEMIKIIEAIYEMLGPEVTKSADDSPRKRAKMIFEKMDVNNDKELTLKEFVDGCLADKELFQILTNEVKK | not soluble
MGKGVAFFSGGKDGLYALYLAEEMGIEVPYLLVLKTSIGLSPHWENLDALKTLAKVMEREILTFDMRRGSKALAEFISSLDVDYLIAGDVYLEDHILWVKSLAEEANVKPLEPLWGRNTRKLAEEMLREGFNWAIIAVDKRKLGKEWLGYTFRSIEDLENFLRANPNVDPLGEVGEFHTVVLNSPLFALNFELKVESIEEDERYWWLRFELREVEKWNLNS | soluble
MGSDKIHHHHHHMSVRVNNLLKLPSLREATVLSGKNQLDTSVASLSFLEVSDMSLFSEKLHKTNEYHAGEILIGSFCAIRHDVVKQCETIRHLHELGEVGLILYYVGIIVPKVAEEVIQLADSLGFILIQMPKNDPTLRYNEVIYEVMKLLVNKNKMASFATDLLEKVSLLPEQNRSVEMTLKILSDFLKVNIALTTYTNEIISTINWPRSTKLPLTKLLYQSQEKVALGETTYFITSQKLPQKDGQTLKLYFIREEEQLTSFEMNQAVEVVQMALNLWGKNYDEVSEYALVQAIINDESDKMYQLAKKLMIDISSVETMWLLPIWQQGQEIHAIQQDLKDFLRYYYQTTIVQQTENYLIVLLGNYLHKQPEATISKEYLQATDYQDYLGEIILCPKVRNTTEVRVSYQTANQVAPFLKRVYPQRKVLSIAEIRTVQQMMTCLQAGEEAIQQRLAVIQPLLKESEQLMTLGTFLLDASSDFNECGERLFVHKNTVKYRISKINEALGYDMTNAAEAYEVYLAMILYRLVTNE | not soluble
MESFQNLAKKPTLKKQIIEQAFDLKCENCGRKYDYYKFDDGSEFKHGCDCEMIEYAKQSTENYHKRNRRRKAERIFKQSIMNEDLTKATFDNYNPTNEQLVYAKNLCERYANNFTLDNKQSLLIQGSFGTGKSHLSMSIVKSVKAKGYTVLYMNVPQLISTIKNTYNNQTAMTEQELAQIISDVDLMVFDDYGINMNEFATSKMFELIESRIGKHNIFTTNLDEKEMTKNKDLQRIFSRIMSNTTLIKMDGQDYRTRGLKLLEHHHHHH | soluble
MITAEKKKKNKFLPNFDKQSIYSLRFDEMQNWLVEQGQQKFRAKQIFEWLYQKRVDSIDEMTNLSKDLRQLLKDNFTVTTLTTVVKQESKDGTIKFLYELQDGYTIETVLMRHDYGNSVCVTTQVGCRIGCTFCASTLGGLKRNLEAGEIVSQVLTVQKALDATEERVSQIVIMGIGEPFENYDEMMDFLRIVNDDNSLNIGARHITVSTSGIIPRIYDFADEDIQINFAVSLHAAKDEVRSRLMPINRAYNVEKLIEAIQYYQEKTNRRVTFEYGLFGGVNDQLEHARELAHLIKGLNCHVNLIPVNHVPERNYVKTAKNDIFKFEKELKRLGINATIRREQGSDIDAACGQLRAKERQVETRLEHHHHHH | not soluble
MGSDKIHHHHHHMSKIGLTTTVPVEVIYAAGDTPVDLNNIFISDTREAMLRIEEAELAGYPRNVCGWIKGLYATALKSPEIKKIVAVTQGDCSNTHALMETWSEEGIEIIPFAFPYDRDGDMLRLQLEKLITALGTTWDQVREQKVRLDQVRQLAWEIDRLTWQENQVRGFENHLHLVSCSDFNGDPEGFARDLEGFIAEAREREPLNLQFKGRKKRELRLGFMGVPPIMPDLYNFLEEHGARVVFNEVQRQFSMPFATEDIVEQYQLYTYPYNVFGRIEDVAQEAERRQLDGLIHYTQSFCYRQIEDLIVRRRLDYPILNLEGENPTGLDARSKMRLESFLQMLRD | not soluble
MMHMDESRKEIIREEAKRAKAIAVEKYKAGDFAGAKEFALKAKQINPALGGLRRLNALLDVCMGFQKQVNGEVDWYDVLAVERTADFITIFNRYSTLAIDISLDRDESVGSGVKEALKILTDASKYFLERRELLPSRRVSGPINQLSRISCEGSKQKEPPPTNLLHVSKLTRMSEDAEIRHDISPNRLRSALARKATSVIKLSLETFVCSSPHNNVGAAEETDNKVMEE | soluble
MSLDQREILQKFLDEAQSKKITKEEFANEFLKLKRQSTKYKADKTYPTTVAEKPKNIKKNRYKDILPYDYSRVELSLITSDEDSSYINANFIKGVYGPKAYIATQGPLSTTLLDFWRMIWEYSVLIIGMACMEYEMGKKKCERYWAEPVEMQLEFGPFSVSCEAEKRKSDYIIRTLKVKFNSETRTIYQFHYKNWPDHDVPSSIDPILELIWDVRCYQEDDSVPICIHCSAGCGRTGVICAIDYTWMLLKDGIIPENFSVFSLIREMRTQRPSLVQTQEQYELVYNAVLELFKRQMDVIRDKHSGTESQAKEGHHHHHH | soluble
MVPDRREQSKAKERLLEREEALAKHMSEREKRPPPKIDPPPSPKAPEPSKRVLKEKQAPLFVDTAVEGTLPPLSLLDPAEVKQKSYSPESLEAMSRLLEIKLKEFGVEVSVDSVHPGPVITRFEIQPAAGVKVSRISNLAKDLARSLAVISVRVVEVIPGKTTVGIEIPNEDRQMVRFSEVLSSPEYDEHKSTVPLALGHDIGGRPIITDLAKMPHLLVAGTTGSGKSVGVNAMLLSILFKSTPSEARLIMIDPKMLELSIYEGIPHLLCPVVTDMKEAANALRWSVAEMERRYRLMAAMGVRNLAGFNRKVKDAEEAGTPLTDPLFRRESPDDEPPQLSTLPTIVVVVDEFADMMMIVGKKVEELIARIAQKARAAGIHLILATQRPSVDVITGLIKANIPTRIAFQVSSKIDSRTILDQGGAEQLLGHGDMLYLPPGTGLPIRVHGAFVSDDEVHRVVEAWKLRGAPDYIEDILAGVDEGGGGGGSFDGGDGSGEGSEDDPLYDEAVRFVTESRRASISAVQRKLKIGYNRAARMIEAMEMAGVVTPMNTNGSREVIAPAPVRDKLHHHHHH | soluble
MMIIVGVDAGGTKTKAVAYDCEGNFIGEGSSGPGNYHNVGLTRAIENIKEAVKIAAKGEADVVGMGVAGLDSKFDWENFTPLASLIAPKVIIQHDGVIALFAETLGEPGVVVIAGTGSVVEGYNGKEFLRVGGRGWLLSDDGSAYWVGRKALRKVLKMMDGLENKTILYNKVLKTINVKDLDELVMWSYTSSCQIDLVASIAKAVDEAANEGDTVAMDILKQGAELLASQAVYLARKIGTNKVYLKGGMFRSNIYHKFFTLYLEKEGIISDLGKRSPEIGAVILAYKEVGCDIKKLISD | soluble
MNDHTAAIAAHFDQLAPNLDRWRRRNRTYYRDLEKLHRFWIPTGSRVLQVGSGLGDLLATVEPSFGIGIDVSPQAVAIAQQRHPQLQFHCLAAEELTPEAIGNPEPFDAIILTGVLSYLTDIQVVLEQLQAFCHPRTRLILGFHNFLWQPLLTAAEKVGQRSPQPPESWLGMQDVLNLLTLTGYEPIKQGLEHHHHHH | soluble
